Results reported in patent publication US20240325555A1 (LANOVA MEDICINES, published 2024).
Where two headings read alike, the source gives them in different places.

Assays:
rat LIV-1 = target: T1, rat LIV-1 (rat, UniProt Q4V887 21-741); test: FACS, HEK293/Rat_LIV-1 cells
T1 construct: whole, on cells
T1 sequence (looked up): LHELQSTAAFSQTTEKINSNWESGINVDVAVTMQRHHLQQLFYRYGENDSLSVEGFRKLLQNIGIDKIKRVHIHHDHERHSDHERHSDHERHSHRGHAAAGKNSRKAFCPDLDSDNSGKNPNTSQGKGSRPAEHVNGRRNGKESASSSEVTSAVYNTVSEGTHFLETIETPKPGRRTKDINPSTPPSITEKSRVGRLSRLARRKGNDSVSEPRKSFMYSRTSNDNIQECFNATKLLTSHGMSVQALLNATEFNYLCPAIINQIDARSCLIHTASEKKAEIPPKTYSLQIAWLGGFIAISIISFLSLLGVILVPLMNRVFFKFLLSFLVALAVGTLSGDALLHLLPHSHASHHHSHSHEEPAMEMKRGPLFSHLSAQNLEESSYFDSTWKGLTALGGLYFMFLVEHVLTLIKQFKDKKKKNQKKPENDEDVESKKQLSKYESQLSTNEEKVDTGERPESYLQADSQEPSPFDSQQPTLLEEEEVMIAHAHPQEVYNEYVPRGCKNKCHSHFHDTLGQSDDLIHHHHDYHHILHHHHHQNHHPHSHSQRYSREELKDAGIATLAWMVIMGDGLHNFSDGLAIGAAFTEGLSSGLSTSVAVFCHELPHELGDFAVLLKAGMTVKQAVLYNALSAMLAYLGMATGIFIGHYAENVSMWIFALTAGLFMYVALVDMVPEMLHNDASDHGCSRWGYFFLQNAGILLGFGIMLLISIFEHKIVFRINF
Experimental: (§1) Humanized antibodies 5D6B10.z7, 124H4D11.p2.z4 and 290F10G10.p1.z2 were selected for further testing. In this example, FACS cross binding of these selected antibodies to LIV-1 of different species were assessed using flow cytometry.
(§2) Cell based binding of optimal leads to different species LIV-1 expressing cells were assessed using flow cytometry. Briefly, the cells were incubated with optimal leads (from 100 nM, 6 folds dilution, 8 points). After incubation at 4° C. for 60 minutes, the cells were washed with 2% FBS/PBS buffer twice, then stained with fluorescent conjugated secondary antibody at 4° C. for 30 minutes. After that the cells were washed twice and resuspended in 80 μL of 2% FBS/PBS buffer. Fluorescent signal of binding was detected using Agilent. The EC50 was calculated using the GraphPad Software (LaJolla, CA).

cynomolgus LIV-1 [1] = target: T2, cynomolgus LIV-1 (cynomolgus, UniProt A0A2K5WH46 30-741); test: FACS, HEK293/Cyno_LIV-1 cells
Experimental: as §2
Target sequence in this assay (A0A2K5WH46 entry or part of it): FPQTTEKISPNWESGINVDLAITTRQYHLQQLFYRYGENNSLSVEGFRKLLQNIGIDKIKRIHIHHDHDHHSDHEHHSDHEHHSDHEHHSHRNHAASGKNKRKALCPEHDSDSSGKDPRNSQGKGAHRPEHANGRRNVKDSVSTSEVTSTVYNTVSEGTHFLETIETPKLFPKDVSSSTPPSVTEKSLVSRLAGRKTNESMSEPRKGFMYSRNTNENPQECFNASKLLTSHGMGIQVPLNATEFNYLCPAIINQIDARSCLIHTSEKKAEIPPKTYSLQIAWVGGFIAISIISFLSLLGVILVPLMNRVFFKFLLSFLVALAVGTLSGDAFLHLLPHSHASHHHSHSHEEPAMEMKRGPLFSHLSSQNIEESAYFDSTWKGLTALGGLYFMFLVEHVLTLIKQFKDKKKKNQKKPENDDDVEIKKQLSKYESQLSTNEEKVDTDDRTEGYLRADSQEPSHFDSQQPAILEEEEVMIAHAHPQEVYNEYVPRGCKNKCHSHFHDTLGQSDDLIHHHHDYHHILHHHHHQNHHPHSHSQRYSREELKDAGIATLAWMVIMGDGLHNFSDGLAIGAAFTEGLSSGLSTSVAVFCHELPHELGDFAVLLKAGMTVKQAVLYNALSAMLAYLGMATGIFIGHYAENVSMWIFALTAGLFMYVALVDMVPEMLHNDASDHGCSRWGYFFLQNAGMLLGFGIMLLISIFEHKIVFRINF

human LIV-1 [2] = target: T3, human LIV-1 (human, UniProt Q13433 29-755); test: cell-based or functional assay
T3 sequence (looked up): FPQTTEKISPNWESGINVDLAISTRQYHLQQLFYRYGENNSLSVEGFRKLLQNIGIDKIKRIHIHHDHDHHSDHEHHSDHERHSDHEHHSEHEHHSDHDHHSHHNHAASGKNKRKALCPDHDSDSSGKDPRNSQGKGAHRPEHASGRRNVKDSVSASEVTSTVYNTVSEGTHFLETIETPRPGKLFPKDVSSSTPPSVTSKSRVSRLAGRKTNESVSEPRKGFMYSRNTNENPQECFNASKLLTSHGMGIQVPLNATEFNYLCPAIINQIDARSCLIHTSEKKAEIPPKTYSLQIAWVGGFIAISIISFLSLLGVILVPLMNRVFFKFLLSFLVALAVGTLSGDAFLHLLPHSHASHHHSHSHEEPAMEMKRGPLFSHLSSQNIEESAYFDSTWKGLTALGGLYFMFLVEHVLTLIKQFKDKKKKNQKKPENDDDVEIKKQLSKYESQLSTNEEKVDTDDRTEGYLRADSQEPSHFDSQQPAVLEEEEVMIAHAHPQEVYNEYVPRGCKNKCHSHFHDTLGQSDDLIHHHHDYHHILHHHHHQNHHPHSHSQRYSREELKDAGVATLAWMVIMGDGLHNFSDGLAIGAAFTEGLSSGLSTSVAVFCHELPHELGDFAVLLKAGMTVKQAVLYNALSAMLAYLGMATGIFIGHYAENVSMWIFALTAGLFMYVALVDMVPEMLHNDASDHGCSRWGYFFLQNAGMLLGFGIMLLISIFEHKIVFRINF

rhesus LIV-1 = rhesus LIV-1 (rhesus, UniProt H9FSJ2 30-735); test: FACS, HEK293/Rhe_LIV-1 cells
Experimental: as §1, §2

human LIV-1 [3] = target: T3, human LIV-1; test: FACS, BT20/H_LIV-1 Low cells
Experimental: (§3) Cell based binding of ADC and naked of ADC on human LIV-1 expressing cells were assessed using flow cytometry. Briefly, HEK293/H_LIV-1, both low- and high-expressing H-LIV1-positive cell lines were incubated with ADC and naked of ADC (from 100 nM, 6 folds dilution, 8 points), respectively. After incubation at 4° C. for 60 minutes, the cells were washed with FACS buffer twice, then stained with fluorescent conjugated secondary antibody at 4° C. for 30 minutes. After that the cells were washed twice and analyzed by flow cytometry.

human LIV-1 [4] = target: T3, human LIV-1; test: FACS, HEK293/H_LIV-1 cells
Experimental: as §3

cynomolgus LIV-1 [5] = target: T2, cynomolgus LIV-1; test: FACS, HEK293/Cyno_LIV-1 cells; remark: listed apart in the source
Target sequence in this assay (A0A2K5WH46 entry or part of it): as the sequence (A0A2K5WH46 entry or part of it) above

human LIV-1 [6] = target: T3, human LIV-1; test: FACS, HEK293/H_LIV-1 cells; remark: listed apart in the source
Procedure, shortened: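 HEK293 cells expressing human LIV-1 incubated with humanized antibodies (from 100 nM, 6-fold dilutions, 8 points) at 4 °C for 60 min. Bound antibody detected with a fluorescent secondary antibody (4 °C, 30 min) by flow cytometry.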

mouse LIV-1 = target: T4, mouse LIV-1 (mouse, UniProt Q8C145 21-765); test: FACS, HEK293/Mouse_LIV-1 cells
T4 construct: whole, on cells
T4 sequence (looked up): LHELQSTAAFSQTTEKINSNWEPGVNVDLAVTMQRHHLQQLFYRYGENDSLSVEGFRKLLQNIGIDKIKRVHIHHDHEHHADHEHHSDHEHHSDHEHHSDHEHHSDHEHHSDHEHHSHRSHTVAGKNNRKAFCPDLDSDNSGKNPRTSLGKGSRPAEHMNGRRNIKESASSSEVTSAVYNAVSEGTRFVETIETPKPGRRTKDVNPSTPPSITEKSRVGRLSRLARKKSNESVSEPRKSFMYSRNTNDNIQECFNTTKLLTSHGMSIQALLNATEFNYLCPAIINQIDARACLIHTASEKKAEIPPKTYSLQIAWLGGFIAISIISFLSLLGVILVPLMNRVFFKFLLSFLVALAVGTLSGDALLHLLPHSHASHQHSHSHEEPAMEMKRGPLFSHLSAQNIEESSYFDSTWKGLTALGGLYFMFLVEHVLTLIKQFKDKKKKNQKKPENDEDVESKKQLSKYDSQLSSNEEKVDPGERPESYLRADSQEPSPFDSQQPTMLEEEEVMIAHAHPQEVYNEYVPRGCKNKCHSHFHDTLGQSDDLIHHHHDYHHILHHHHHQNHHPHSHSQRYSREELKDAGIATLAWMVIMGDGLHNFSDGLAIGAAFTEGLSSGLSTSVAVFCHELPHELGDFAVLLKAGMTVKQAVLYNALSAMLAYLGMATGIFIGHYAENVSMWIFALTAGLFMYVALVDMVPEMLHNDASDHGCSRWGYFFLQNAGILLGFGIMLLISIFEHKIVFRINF
Experimental: as §1, §2

human LIV-1 [7] = target: T3, human LIV-1; test: FACS, BT20/H_LIV-1 High cells
Experimental: as §3

human LIV-1 [8] = target: T3, human LIV-1; test: cell-based or functional assay; remark: listed apart in the source
human LIV-1 [9] = target: T3, human LIV-1; test: cell-based or functional assay; remark: listed apart in the source
cynomolgus LIV-1 [10] = target: T2, cynomolgus LIV-1; test: FACS, HEK293/Cyno_LIV-1 cells; remark: listed apart in the source
Procedure, shortened: (§4)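 HEK293 cells over-expressing human or cyno LIV-1 incubated with chimeric Abs (from 100 nM, 5-fold dilutions, 8 points) for 60 min at 4 °C, then fluorescent secondary antibody 30 min at 4 °C; washes in 2% FBS/PBS. Binding read by flow cytometry; EC50 from the titration curve.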

human LIV-1 [11] = target: T3, human LIV-1; test: FACS, HEK293/H_LIV-1 cells; remark: listed apart in the source
Procedure, shortened: as §4

human LIV-1 [12] = target: T3, human LIV-1; test: cell-based or functional assay; remark: listed apart in the source

Sequence of rhesus LIV-1 (H9FSJ2 entry or part of it): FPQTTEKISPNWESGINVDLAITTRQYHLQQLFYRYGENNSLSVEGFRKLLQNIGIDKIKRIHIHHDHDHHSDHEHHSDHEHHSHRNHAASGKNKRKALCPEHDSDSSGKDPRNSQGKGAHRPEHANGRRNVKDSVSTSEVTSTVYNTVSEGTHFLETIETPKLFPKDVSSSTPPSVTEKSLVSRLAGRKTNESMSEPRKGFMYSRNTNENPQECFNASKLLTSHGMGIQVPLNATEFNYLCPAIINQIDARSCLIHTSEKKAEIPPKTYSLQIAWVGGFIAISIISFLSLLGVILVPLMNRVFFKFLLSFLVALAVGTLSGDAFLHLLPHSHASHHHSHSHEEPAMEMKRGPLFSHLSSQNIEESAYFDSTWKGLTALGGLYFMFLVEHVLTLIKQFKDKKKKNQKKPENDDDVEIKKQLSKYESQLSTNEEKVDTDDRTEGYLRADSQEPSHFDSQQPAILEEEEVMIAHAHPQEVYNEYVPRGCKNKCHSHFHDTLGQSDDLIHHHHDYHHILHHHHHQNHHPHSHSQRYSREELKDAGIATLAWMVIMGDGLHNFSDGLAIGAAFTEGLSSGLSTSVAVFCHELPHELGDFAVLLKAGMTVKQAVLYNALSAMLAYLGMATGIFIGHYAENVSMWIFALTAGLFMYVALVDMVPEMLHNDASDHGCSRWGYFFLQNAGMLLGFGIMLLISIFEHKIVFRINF

Top (MFI) (rat LIV-1)	binding result (rat LIV-1)	EC50 (cynomolgus LIV-1 [1])	Top (MFI) (cynomolgus LIV-1 [1])	Internalization EC50 (human LIV-1 [2])	Internalization Top (MFI) (human LIV-1 [2])	EC50 (rhesus LIV-1)	Top (MFI) (rhesus LIV-1)	EC50 (human LIV-1 [3])	Top (MFI) (human LIV-1 [3])	EC50 (human LIV-1 [4])	Top (MFI) (human LIV-1 [4])	EC50 (cynomolgus LIV-1 [5])	Top (MFI) (cynomolgus LIV-1 [5])	EC50 (human LIV-1 [6])	Top (MFI) (human LIV-1 [6])	Top (MFI) (mouse LIV-1)	binding result (mouse LIV-1)	EC50 (human LIV-1 [7])	Top (MFI) (human LIV-1 [7])	Binder	other results
106 MFI	no binding (tested: 100 nM)	90 pM	1420 MFI	5600 pM	139000 MFI	70 pM	5420 MFI	170 pM	3460 MFI	160 pM	19900 MFI	130 pM	8840 MFI	130 pM	16900 MFI	107 MFI	no binding (tested: 100 nM)	150 pM	20800 MFI	124H4D11.p2.z4 (antibody, V domains shown) VH: QVQLVQSGAEVVKPGASVKVSCKASGFNIKDYYMHWVRQAPGQGLEWIGWIDPENDDTEYDPKFQGRVTMTADTSTSTVYMELSSLRSEDTAVYYCAARYYAFDYWGQGTMVTVSS VL: DVLMTQSPLSLPVTLGQPASISCRSSQSIVHSNANTYLEWYLQRPGQSPRLLIYKVSNRFSGVPDRFSGSGSGTDFTLKISRVEAEDVGVYYCFQGSQVPPTFGQGTKLEIK	
6820 MFI		260 pM	1560 MFI			220 pM	5270 MFI									5550 MFI				290F10G10 (antibody, V domains shown, Tested as chimeric antibody) VH: IQLQQSGAELARPGASVKLSCKASGYTFTSYWIHWVKERPGQGLEWIGTIYPGDGDTRSTQKFKDKATVTAEKSSSTVYMQLSSLASEDSAVYYCTRSLIHDDYDKYYFDYWGQGTTLTVSS VL: DIQMTQSPSSLSASLGGKVTITCKARQDINKYIAWYQHKPGKGPRLLIHYTSILQPGIPSRFSGSGSGRDYSFSISNLEPEDIATYYCLQYDYFFTFGSGTKLEIK	EC50 (rat LIV-1): 72200 pM; Internalization EC50 (human LIV-1 [8]): 3500 pM; Internalization Top (RFU) (human LIV-1 [8]): 298000 RFU; Cell viability(%) (human LIV-1 [9]): 3.46%; Cytotoxicity IC50 (human LIV-1 [9]): 1330 pM; EC50 (cynomolgus LIV-1 [10]): 530 pM; Top (MFI) (cynomolgus LIV-1 [10]): 2940 MFI; EC50 (human LIV-1 [11]): 380 pM; Top (MFI) (human LIV-1 [11]): 9570 MFI; EC50 (mouse LIV-1): 51100 pM; ADCC reporter EC50 (human LIV-1 [12]): 400 pM; ADCC reporter Top (RFU) (human LIV-1 [12]): 177000 RFU
255 MFI	no binding (tested: 100 nM)	550 pM	13900 MFI	5700 pM	59100 MFI	300 pM	41000 MFI	510 pM	34700 MFI	690 pM	102000 MFI	190 pM	20400 MFI	220 pM	50700 MFI	162 MFI	no binding (tested: 100 nM)	1060 pM	152000 MFI	5D6B10.Z7 (antibody, V domains shown) VH: QVQLVQSGGGVVQPGRSLRLSCTVSGFSLTTYGIHWVRQSPGKGLEWLGVIWTGGTTDYNAAFISRLTISKDNSKSTVYFQMNSLQAEDTAIYYCARGPSSYWGQGTLVTVSS VL: EIVMTQSPATLSVSPGERATLSCKASQNVDTNVVWYQQKPGQSPRALIYSASYRYSGVPARFSGSGSGTEFTLTISSLQSEDFAVYFCQQYNNYPWTFGQGTKVEIK	
